# From patent US20250361529
# Target: T1, UnCas12f1 (Un1Cas12f1) (UniProt A0A482D308)
# T1 sequence: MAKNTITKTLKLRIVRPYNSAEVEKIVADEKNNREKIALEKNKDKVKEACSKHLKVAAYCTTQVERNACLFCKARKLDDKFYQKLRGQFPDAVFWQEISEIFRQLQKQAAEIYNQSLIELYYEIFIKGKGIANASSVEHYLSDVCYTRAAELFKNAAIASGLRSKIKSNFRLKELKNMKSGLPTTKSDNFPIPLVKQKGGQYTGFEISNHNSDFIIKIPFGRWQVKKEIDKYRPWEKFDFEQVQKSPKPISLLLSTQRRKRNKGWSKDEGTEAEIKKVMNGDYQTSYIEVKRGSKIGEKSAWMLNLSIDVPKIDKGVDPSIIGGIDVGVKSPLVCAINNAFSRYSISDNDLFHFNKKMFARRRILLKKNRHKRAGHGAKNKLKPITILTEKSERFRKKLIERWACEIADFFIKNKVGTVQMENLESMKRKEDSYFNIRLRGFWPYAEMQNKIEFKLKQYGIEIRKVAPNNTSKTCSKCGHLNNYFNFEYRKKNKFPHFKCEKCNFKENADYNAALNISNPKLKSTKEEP
# Assay: cell_activity
sequence,measurement,setting,value
ACCGCUUCACUUAGAGUGAAGGUGGGCUGCUUGCAUCAGCCUAAUGUCGAGAAGUGCUUUCUUCGGAAAGUAACCCUCGAAACAAAGAAAGGAAUGCAACNNNNNNNNNNNNNNNNNNNNUUUUAUUUUUUCUCAUUCUCAUGCCUGGACA / TTTGCTCATTCTCATGCCTGGACA / TGTCCAGGCATGAGAATGAGCAAA [ge4.1-F142 sgRNA ; DMD F142 target],activity,"PAM TTTR (TTTG), HEK293, AC16 19.18",50 % indel
ACCGCUUCACUUAGAGUGAAGGUGGGCUGCUUGCAUCAGCCUAAUGUCGAGAAGUGCUUUCUUCGGAAAGUAACCCUCGAAACAAAGAAAGGAAUGCAACNNNNNNNNNNNNNNNNNNNNUUUUAUUUUUUUAGCUAGAUAAACUUGGGCU / TTTATAGCTAGATAAACTTGGGCT / AGCCCAAGTTTATCTAGCTATAAA [ge4.1-R16 sgRNA ; DMD R16 target],activity,"PAM TTTR (TTTA), HEK293, AC16 29.76",58.8 % indel
ACCGCUUCACCAAAAGCUGUCCCUUAGGGGAUUAGAACUUGAGUGAAGGUGGGCUGCUUGCAUCAGCCUAAUGUCGAGAAGUGCUUUCUUCGGAAAGUAACCCUCGAAACAAAGAAAGGAAUGCAACNNNNNNNNNNNNNNNNNNNNUUUUAUUUUUUCUCUCCUAGACCAUUUCCCA / TTTGCTCTCCTAGACCATTTCCCA / TGGGAAATGGTCTAGGAGAGCAAA [ge4.0-R52 sgRNA ; DMD R52 target],activity,"PAM TTTR (TTTG), HEK293, AC16 36.47",46.1 % indel
ACCGCUUCACUUAGAGUGAAGGUGGGCUGCUUGCAUCAGCCUAAUGUCGAGAAGUGCUUUCUUCGGAAAGUAACCCUCGAAACAAAGAAAGGAAUGCAACNNNNNNNNNNNNNNNNNNNNUUUUAUUUUUUACUGACUACUCCCCAAGUAU / TTTGACTGACTACTCCCCAAGTAT / ATACTTGGGGAGTAGTCAGTCAAA [ge4.1-F110 sgRNA ; DMD F110 target],activity,"ge4.1, PAM TTTG, HEK293, 5 days, no editing detected",0 % indel
ACCGCUUCACCAAAAGCUGUCCCUUAGGGGAUUAGAACUUGAGUGAAGGUGGGCUGCUUGCAUCAGCCUAAUGUCGAGAAGUGCUUUCUUCGGAAAGUAACCCUCGAAACAAAGAAAGGAAUGCAACNNNNNNNNNNNNNNNNNNNNUUUUAUUUUUUCUCAUUCUCAUGCCUGGACA / TTTGCTCATTCTCATGCCTGGACA / TGTCCAGGCATGAGAATGAGCAAA [ge4.0-F142 sgRNA ; DMD F142 target],activity,"PAM TTTR (TTTG), HEK293, AC16 48.08",54 % indel
